Earlier results, collected in PMC12017986.
pKd: −log10 of the molar value. Where two headings read alike, the source gives them in different places.

Columns and labels:
[1] = target: Swallow (Drosophila melanogaster) (UniProt P40688)
[2] = target: Dynein intermediate chain (IC) (Drosophila melanogaster) (UniProt Q24246)
[3] = target: Dynein intermediate chain (IC) (Drosophila melanogaster) (UniProt Q24246); remark: listed apart in the source

UniProt Q24246, sequence (Q24246 whole entry): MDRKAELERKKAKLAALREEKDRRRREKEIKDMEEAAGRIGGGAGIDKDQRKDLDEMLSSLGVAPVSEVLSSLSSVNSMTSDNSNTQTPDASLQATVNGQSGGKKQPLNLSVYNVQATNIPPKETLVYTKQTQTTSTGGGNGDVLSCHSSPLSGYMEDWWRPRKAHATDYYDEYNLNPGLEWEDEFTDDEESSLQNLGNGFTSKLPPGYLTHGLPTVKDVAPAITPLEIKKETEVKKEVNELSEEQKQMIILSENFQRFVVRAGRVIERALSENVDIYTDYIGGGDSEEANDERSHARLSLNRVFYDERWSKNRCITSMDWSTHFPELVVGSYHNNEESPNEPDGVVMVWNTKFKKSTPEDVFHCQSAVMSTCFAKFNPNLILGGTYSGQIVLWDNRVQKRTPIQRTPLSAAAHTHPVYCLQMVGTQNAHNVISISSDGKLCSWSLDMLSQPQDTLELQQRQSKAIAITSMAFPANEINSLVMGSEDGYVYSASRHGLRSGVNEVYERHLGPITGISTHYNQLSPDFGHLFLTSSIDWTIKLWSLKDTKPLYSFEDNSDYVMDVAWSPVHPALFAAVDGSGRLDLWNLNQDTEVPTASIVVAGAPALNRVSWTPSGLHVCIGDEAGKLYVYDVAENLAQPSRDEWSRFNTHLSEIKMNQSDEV
UniProt P40688, sequence (P40688 whole entry): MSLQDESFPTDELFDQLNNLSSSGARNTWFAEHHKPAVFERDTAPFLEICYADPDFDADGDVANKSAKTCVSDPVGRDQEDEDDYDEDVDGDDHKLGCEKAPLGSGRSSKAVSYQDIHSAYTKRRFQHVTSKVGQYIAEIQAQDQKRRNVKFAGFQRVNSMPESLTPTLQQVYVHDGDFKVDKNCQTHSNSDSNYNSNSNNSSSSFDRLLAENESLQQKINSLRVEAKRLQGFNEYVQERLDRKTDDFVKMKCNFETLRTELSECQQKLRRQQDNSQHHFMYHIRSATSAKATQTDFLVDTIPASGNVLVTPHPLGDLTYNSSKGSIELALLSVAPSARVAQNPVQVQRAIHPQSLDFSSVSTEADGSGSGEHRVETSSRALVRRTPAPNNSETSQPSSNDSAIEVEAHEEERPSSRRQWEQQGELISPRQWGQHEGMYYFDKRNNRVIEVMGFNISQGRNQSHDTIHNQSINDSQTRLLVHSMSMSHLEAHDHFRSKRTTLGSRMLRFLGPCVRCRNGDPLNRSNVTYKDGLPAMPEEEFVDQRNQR

## LC8 (from UniProt Q24117)
[1]
  pKd: 6.70
[2]
  pKd: 5.10
[3]
  pKd: 6.89
